The values below come from patent US20200317769A1 (published 2020).

Substitutions are numbered along the chain they refer to. Numbers in names are those of the source. Where two headings read alike, the source gives them in different places. Some results are limits rather than exact numbers.

The target of experiment [1] is T1, soluble human TNF-alpha (human, UniProt P01375 77-233). The experiment in a line: cell-based or functional assay.
Experiment [2] concerns the target T2, soluble cynomolgus monkey TNF-alpha (cynomolgus monkey, UniProt P79337 77-233). Put plainly: cell-based or functional assay.
Experiment [3] concerns the target T3, non-cleavable transmembrane form of human TNF-alpha on CHO cells (mTNF-alpha-CHO) (human, UniProt P01375 1-233). The experiment in a line: cell-based or functional assay.
Experiment [4] concerns the target T1, soluble human TNF-alpha. The experiment in a line: competition ELISA: VHH mixed with human TNF-alpha, binding to coated etanercept (TNFR2-Fc). Here is the method: (§1) Variable domains were diluted and mixed with either human or cynomolgus monkey TNF-alpha (1.25 ng/ml) to allow binding before adding to the ELISA plates.
Experiment [5] concerns the target T2, soluble cynomolgus monkey TNF-alpha. The experiment in a line: competition ELISA: VHH mixed with cynomolgus TNF-alpha, binding to coated etanercept (TNFR2-Fc). Here is the method: as §1
A general note: An ELISA detects its analyte on a solid surface through an enzyme-linked reagent.

Experiment [6] concerns the target T1, soluble human TNF-alpha. The experiment in a line: cell-based or functional assay. This is another data set of the same source.
The target in experiment [7] is T1, soluble human TNF-alpha. Put plainly: cell-based or functional assay. This is another data set of the same source.
Experiment [8] deals with T2, soluble cynomolgus monkey TNF-alpha. Put plainly: cell-based or functional assay. This is another data set of the same source.
Experiment [9] concerns the target T3, non-cleavable transmembrane form of …. Put plainly: cell-based or functional assay. The source holds these as a separate data set.
Experiment [10] shares this target. The experiment in a line: cell-based or functional assay. This is another data set of the same source.
For experiment [11], the target named is T1, soluble human TNF-alpha. The experiment in a line: cell-based or functional assay. This is another data set of the same source.
The target of experiment [12] is T1, soluble human TNF-alpha. The experiment in a line: competition ELISA: VHH mixed with TNF-alpha 2.5 ng/ml, binding to coated hTNFR1.
Procedure: Plate was washed in PBST using a plate washer and blocked for 1 hour in 200 ul 1% BSA per well. A threefold dilution series beginning at 30 nM for each antibody was incubated with 2.5 ng/ml TNF-alpha for 1 hour, 50 ul/well of which was then added to the washed plate and incubated for 5 hours. The plate was washed and incubated with 50 ul/well of a 1/1000 dilution of biotinylated rabbit alpha-hTNF (Peprotech P31AB7) in 1% BSA and incubated overnight at 4 degrees C. The plate was washed and incubated with 50 ul/well of a 1/1000 dilution of mAvidin HRP in 1% BSA for 1 hour before a final wash and incubation with 100 ul/well TMB substrate. The reaction was stopped after 20 minutes with 50 ul/well 0.5 M H2504 and absorbance was read at 450 nm. EC50 values were calculated from ELISA data in GraphPad Prism.
Experiment [13] has as its target T1, soluble human TNF-alpha. Put plainly: competition ELISA: VHH mixed with h-TNF-alpha, binding to coated etanercept.

T3 sequence (P01375 whole entry, the tested form may be a part): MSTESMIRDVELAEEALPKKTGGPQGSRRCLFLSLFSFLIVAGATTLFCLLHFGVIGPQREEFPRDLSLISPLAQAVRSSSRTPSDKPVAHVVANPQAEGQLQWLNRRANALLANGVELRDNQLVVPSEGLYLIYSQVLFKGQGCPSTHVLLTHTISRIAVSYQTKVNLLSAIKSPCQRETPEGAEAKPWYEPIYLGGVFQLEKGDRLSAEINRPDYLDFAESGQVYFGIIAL
T2 sequence (P79337 77-233 limits assumed): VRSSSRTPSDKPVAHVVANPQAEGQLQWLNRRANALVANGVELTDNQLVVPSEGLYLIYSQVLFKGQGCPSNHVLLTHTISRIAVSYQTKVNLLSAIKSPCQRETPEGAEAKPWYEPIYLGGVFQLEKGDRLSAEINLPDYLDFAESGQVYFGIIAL
T1 sequence (P01375 77-233 limits assumed): as the sequence (P79337 77-233 limits assumed) above, with V37L, T44R, N72T, L138R counted along it

B1: Q65E12 (VHH, not shown: small tags and cut ends)
VHH: EVQLVESGGGLVQPGGSLRLSCSASGFDFSIHWMYWVRQAPGKELEWVAEINTNGLITLYADSVKGRFTASRDNAKNALFLQMNDLKFEDTAVYYCAKSRNGAAGGQGTQVTVSS
notes: Family 2; purified from E. coli
Turning to B1, the “Inhibition of human TNF-induced L929 cell cytotoxicity EC50” value with soluble human TNF-alpha [1] was 4 nM. The “Inhibition of cynomolgus TNF-induced L929 cell cytotoxicity EC50” value in [2] is 4 nM. In experiment [3], the “Inhibition of mTNF-alpha-induced HEK-NF-kB SEAP Reporter (EC50 = nM)” value (from here on “Inhibition … (EC50 = nM)”) was determined as 174 nM. Besides, the EC50 (as a rule, the concentration giving half of the maximal effect) turned out to be 47 nM with soluble human TNF-alpha [4] and 65 nM in experiment [5].

B2: Q65F6 (VHH, not shown: small tags and cut ends)
VHH: B1 VHH with S23T, S30G, A61S, K65R, K76N, G105K
notes: as for B1
Take B2: the “Inhibition of human TNF-induced L929 cell cytotoxicity EC50” value in the experiment with soluble human TNF-alpha [1] was determined as 1.5 nM. For the same molecule, the “Inhibition of cynomolgus TNF-induced L929 cell cytotoxicity EC50” value in [2] was determined as 1 nM. Also, the “Inhibition … (EC50 = nM)” value in [3] is 110 nM. The figures for the EC50 (in the experiment with soluble human TNF-alpha [4]; in [5]) were 13 nM and 24 nM, respectively.

B3: ID22F (VHH)
chain: EVQLVESGGGLVQPGGSLKLSCAASGFDFSSHWMYWVRQAPGKELEWLSEINTNGLITKYGDSVKGRFTVSRNNAANKMYLELTRLEPEDTALYYCARNQKGLNKGQGTQVTVSSGGGGSGGGGSGGGGSGGGGSGGGGSGGGGSEVQLVESGGGLVQPGGSLKLSCAASGFDFSSHWMYWVRQAPGKELEWLSEINTNGLITKYGDSVKGRFTVSRNNAANKMYLELTRLEPEDTALYYCARNQKGLNKGQGTQVTVSS
For B3, in the experiment with soluble human TNF-alpha [6], the “potency relative to the monomer, soluble TNF-induced HEK293-NF-kB-SEAP reporter assay” value is ~10 fold.

B4: Q65C7 (VHH, not shown: small tags and cut ends)
VHH: EVQLVESGGGLVQPGRSLRLSCTASGFDFSSHWMYWVRQAPGKGLEWVSEINTNGLITKYADFVKGRFTVSRDNAANTLYLEITRLEPEDTALYYCARNQKGLNKGQGTQVTVSS
notes: Family 1; purified from E. coli
As for B4, the “Inhibition of human TNF-induced L929 cell cytotoxicity EC50” value with soluble human TNF-alpha [1] worked out at 0.15 nM. Moreover, the “Inhibition of cynomolgus TNF-induced L929 cell cytotoxicity EC50” value in [2] came out at 0.03 nM. Moreover, in experiment [3], the “Inhibition … (EC50 = nM)” value is 14.1 nM. The EC50 is 0.35 nM with soluble human TNF-alpha [4] and 0.32 nM in [5].

B5: Q62F2 (VHH, not shown: small tags and cut ends)
VHH: B4 VHH with E1Q, R16G, T23A, S30N, K59N, A61V, F63S, I83M, R85S, E87K
notes: as for B4
In the case of B5, the “Inhibition of human TNF-induced L929 cell cytotoxicity EC50” value with soluble human TNF-alpha [7] came out at 1 nM. Moreover, the “Inhibition of cynomolgus TNF-induced L929 cell cytotoxicity EC50” value in experiment [8] is 0.8 nM. Further, the “Inhibition … (EC50 = nM)” value in [9] came to 34 nM. Further, the figures for the EC50 (with soluble human TNF-alpha [4]; in experiment [5]) were 0.7 nM and 1.3 nM, respectively.

B6: Q65D1 (VHH, not shown: small tags and cut ends)
VHH: B4 VHH with R16G, S30D, S31N, Y35C, E82Q, E87K
notes: as for B4
Consider B6, for which the “Inhibition of human TNF-induced L929 cell cytotoxicity EC50” value with soluble human TNF-alpha [1] came out at 0.1 nM. Further, the “Inhibition of cynomolgus TNF-induced L929 cell cytotoxicity EC50” value in [2] was found to be 0.06 nM. Besides, the “Inhibition … (EC50 = nM)” value in [3] was determined as 15.3 nM. Moreover, the results for the EC50 (in the experiment with soluble human TNF-alpha [4]; in [5]) were 0.37 nM and 0.32 nM, respectively.

B7: Q65D3 (VHH, not shown: small tags and cut ends)
VHH: B4 VHH with R16G, T23V, F63S, V64T, T78M, Y80N, I83M, R85S, Q100E, K101R
notes: as for B4
Regarding B7, in the experiment with soluble human TNF-alpha [6], the “EC50, HEK-293 NF-kB/SEAP reporter cells, human soluble TNF-alpha” value was ~0.6 nM. The “Inhibition of human TNF-induced L929 cell cytotoxicity EC50” value in the experiment with soluble human TNF-alpha [1] was 0.15 nM. In addition, the “Inhibition of cynomolgus TNF-induced L929 cell cytotoxicity EC50” value in experiment [2] turned out to be 0.1 nM. Further, the “Inhibition … (EC50 = nM)” value in [3] amounted to 16 nM. The values for the concentration giving a half-maximal response (EC50) (in the experiment with soluble human TNF-alpha [4]; in experiment [5]) were 0.33 nM and 0.45 nM, respectively.

B8: Q62E10 (VHH, not shown: small tags and cut ends)
VHH: QVQLVESGGGLVQPGGSLRLSCTTSGLDFGIHWMYWFRQAPGKELEWVAEINTNALITKYADSVKGRFTISRDNAKNTLFLQMNDLKSEDTAVYYCSNTQNGAAKGQGVQVTVSS
notes: as for B1
B8: the “Inhibition of human TNF-induced L929 cell cytotoxicity EC50” value in the experiment with soluble human TNF-alpha [7] was 0.2 nM. Besides, in [8], the “Inhibition of cynomolgus TNF-induced L929 cell cytotoxicity EC50” value is < 0.1 nM. Further, the “Inhibition … (EC50 = nM)” value in experiment [9] is 80 nM. The EC50 with soluble human TNF-alpha [4] came out at 0.8 nM; in experiment [5], 1.2 nM.

B9: Q65A3 (VHH, not shown: small tags and cut ends)
VHH: B8 VHH with Q1E, L20P
notes: as for B1
On to B9, for which the “Inhibition of human TNF-induced L929 cell cytotoxicity EC50” value in the experiment with soluble human TNF-alpha [1] is 0.15 nM. Besides, in experiment [2], the “Inhibition of cynomolgus TNF-induced L929 cell cytotoxicity EC50” value was 0.04 nM. The “Inhibition … (EC50 = nM)” value in [3] came out at 23.9 nM. Moreover, the half-maximal effective concentration (EC50) in the experiment with soluble human TNF-alpha [4] stood at 1.3 nM; in experiment [5], 1.1 nM.

B10: Q62F10 (VHH, not shown: small tags and cut ends)
VHH: EVQLVESGGGLVQPGGSLRLSCVASGFDFNIHWMYWVRQAPGKELEWVAEINTNGLITVYPDSVKGRFTISRDNAKNTLFLQMNNLKFEDTAVYYCTNTQNGKTKGQGTQVTVSS
notes: as for B1
B10: in the experiment with soluble human TNF-alpha [7], the “Inhibition of human TNF-induced L929 cell cytotoxicity EC50” value turned out to be 2 nM. For the same molecule, in experiment [8], the “Inhibition of cynomolgus TNF-induced L929 cell cytotoxicity EC50” value was determined as 1.3 nM. For the same molecule, the EC50 was determined as 30 nM with soluble human TNF-alpha [4] and 108 nM in [5].

B11: Q62F11 (VHH, not shown: small tags and cut ends)
VHH: QVQLVESGGGLVQPGGSLRLSCAASGFSFSDYVMGWFRQAPGKEREFVGFIRWDGLVTRYADAVKGRFTISRDNARNTLSLQTIGLLAEDTAVYYCAASGGGSGPVNAGSYEYWGQGTQVTVSS
notes: Neither Family 1 nor Family 2; purified from E. coli
Consider B11, for which the “Inhibition of human TNF-induced L929 cell cytotoxicity EC50” value in the experiment with soluble human TNF-alpha [7] is 6 nM. Also, in experiment [8], the “Inhibition of cynomolgus TNF-induced L929 cell cytotoxicity EC50” value was found to be 1.5 nM. In experiment [9], the “Inhibition … (EC50 = nM)” value stood at 40 nM. Also, the EC50 with soluble human TNF-alpha [4] came to 2.3 nM; in experiment [5], 1.4 nM.

B12: Q65B1 (VHH, not shown: small tags and cut ends)
VHH: EVQLVESGGGLVQPGGSLKLSCAASGFDFSSHWMYWVRQAPGKELEWLSEINTNGLITKYGDSVKGRFTVSRNNAANKMYLELTRLEPEDTALYYCARNQKGLNKGQGTQVTVSS
notes: Family 1; purified from E. coli; parent of the ID series
For B12, the “EC50, HEK-293 NF-kB/SEAP reporter cells, human soluble TNF-alpha” value in the experiment with soluble human TNF-alpha [6] was ~0.2 nM. The “Inhibition of human TNF-induced L929 cell cytotoxicity EC50” value with soluble human TNF-alpha [1] came out at 0.04 nM. For the same molecule, the “Inhibition of cynomolgus TNF-induced L929 cell cytotoxicity EC50” value in experiment [2] is 0.01 nM. In addition, the “Inhibition … (EC50 = nM)” value in [3] was determined as 10.9 nM. For the same molecule, the “mTNF-alpha neutralisation EC50 (nM), NF-kB/SEAP HEK-293 cellular reporter assay” value (from here on “mTNF-alpha neutralisation EC50 (nM)”) in experiment [10] is 8.72 nM. The results for the EC50 (with soluble human TNF-alpha [4]; in [5]) were 0.29 nM and 0.45 nM, respectively.

B13: ID38F (VHH)
VHH: B12 VHH with E1D, K59H, K101H
notes: Q65B1 with N-terminal DVQLV, K59H and K101H; no His-tag; also called ID38F (S. cerevisiae-produced)
With B13, in experiment [10], the “mTNF-alpha neutralisation EC50 (nM)” value was 5.16 nM. The “EC50 (nM), neutralisation of human soluble TNF-alpha-induced cytotoxicity in L929 cells” value with soluble human TNF-alpha [11] was 0.127 nM. In the experiment with soluble human TNF-alpha [12], this molecule had an EC50 of 0.61 nM.

B14: ID8F-EV (VHH, not shown: small tags and cut ends)
VHH: B12 VHH with K59H
For the molecule B14, the “mTNF-alpha neutralisation EC50 (nM)” value in [10] was determined as 7.69 nM.

B15: ID15F-EV (VHH)
VHH: B12 VHH with K101H, K105H
notes: Q65B1 monomer mutant with His-tag; not shown: C-terminal His-tag (c-myc-6His or Flag-6His)
Turning to B15, the binding result with soluble human TNF-alpha [13] is on record as “binds”.

B16: ID34F (VHH)
VHH: B12 VHH with K59H, K101H
Turning to B16, the “mTNF-alpha neutralisation EC50 (nM)” value in [10] turned out to be 4.71 nM.

B17: ID13F-EV (VHH)
VHH: B12 VHH with K101H
notes: as for B15
For the molecule B17, the binding result with soluble human TNF-alpha [13] is recorded as “binds”.

B18: ID9F-EV (VHH)
VHH: B12 VHH with K65H
notes: as for B15
With B18, the binding result with soluble human TNF-alpha [13] is given as “binds”.
